Results on 75 variants are retold here after paper PMC12102759 (2025).

The labels stand for the following.
B1: RNF115 peptide 69-84 (E3 ubiquitin-protein ligase RNF115), 16-mer library wild type / MDM2 SWIB (MDM2 SWIB/MDM2 domain, residues 17-125) (parent complex)
chain 1: THFAELWGHLDHTMFF
chain 2: SQIPASEQETLVRPKPLLLKLLKSVGAQKDTYTMKEVLFYLGQYIMTKRLYDEKQQHIVYCSNDLLGDLFGVPSFSVKEHRKIYTMIYRNLVVVNQQESSDSGTSVSEN

In the test the parent is B1. The experiment in a line: proteomic peptide phage display deep mutational scan (ProP-PD DMS): M13 P8 16-mer library selected against immobilised GST-tagged bait for four days (rounds), NGS of the eluted pools per day and pseudo-replica; bait immobilised on MaxiSorp plates (10 µg), library pre-cleared on GST, 2 h binding at 4 °C, five washes; one round per day, days 1-4; value from days 2 and 3.
In the case of chain 1 T1M, the screen value was 0.0023 average fractional NGS count over selection days 2 and 3 (reads of this peptide / all reads for the bait, averaged over …. In the case of chain 1 T1V it was 0.00156 average fractional NGS count over selection days 2 and 3 (reads of this peptide / all reads for the bait, averaged over …. In the case of chain 1 T1D it was 0.000599 average fractional NGS count over selection days 2 and 3 (reads of this peptide / all reads for the bait, averaged over …; in that of chain 1 T1Y, 0.000395 average fractional NGS count over selection days 2 and 3 (reads of this peptide / all reads for the bait, averaged over …; in that of chain 1 T1F, 0.000233 average fractional NGS count over selection days 2 and 3 (reads of this peptide / all reads for the bait, averaged over …. In the case of chain 1 T1H it was 0.00126 average fractional NGS count over selection days 2 and 3 (reads of this peptide / all reads for the bait, averaged over …; in that of chain 1 T1G, 0.000168 average fractional NGS count over selection days 2 and 3 (reads of this peptide / all reads for the bait, averaged over …; in that of chain 1 L6F, 0.00096 average fractional NGS count over selection days 2 and 3 (reads of this peptide / all reads for the bait, averaged over …. For the variant chain 1 L6V, the screen value was 0.000773 average fractional NGS count over selection days 2 and 3 (reads of this peptide / all reads for the bait, averaged over ….

In the case of chain 1 L6M, the screen value was 0.000951 average fractional NGS count over selection days 2 and 3 (reads of this peptide / all reads for the bait, averaged over ….

On to chain 1 L6A, for which the screen value was 0.00179 average fractional NGS count over selection days 2 and 3 (reads of this peptide / all reads for the bait, averaged over …. As for chain 1 D11Q, the screen value was 0.000111 average fractional NGS count over selection days 2 and 3 (reads of this peptide / all reads for the bait, averaged over …. For the variant chain 1 D11Y, the screen value was 0.000538 average fractional NGS count over selection days 2 and 3 (reads of this peptide / all reads for the bait, averaged over ….

Turning to chain 1 D11S, the screen value was 0.00405 average fractional NGS count over selection days 2 and 3 (reads of this peptide / all reads for the bait, averaged over ….

With chain 1 D11T, the screen value was 0.000142 average fractional NGS count over selection days 2 and 3 (reads of this peptide / all reads for the bait, averaged over …. Then chain 1 D11E, with 0.000686 average fractional NGS count over selection days 2 and 3 (reads of this peptide / all reads for the bait, averaged over …. Regarding chain 1 D11M, the screen value was 0.000791 average fractional NGS count over selection days 2 and 3 (reads of this peptide / all reads for the bait, averaged over …. For the variant chain 1 D11A, the screen value was 0.0112 average fractional NGS count over selection days 2 and 3 (reads of this peptide / all reads for the bait, averaged over ….

chain 1 D11P: the screen value is 0.000507 average fractional NGS count over selection days 2 and 3 (reads of this peptide / all reads for the bait, averaged over …. Then chain 1 D11L, with 0.000447 average fractional NGS count over selection days 2 and 3 (reads of this peptide / all reads for the bait, averaged over …; and chain 1 E5N, with 0.000269 average fractional NGS count over selection days 2 and 3 (reads of this peptide / all reads for the bait, averaged over …; and chain 1 E5S, with 0.00184 average fractional NGS count over selection days 2 and 3 (reads of this peptide / all reads for the bait, averaged over …. Then chain 1 E5W, with 0.00018 average fractional NGS count over selection days 2 and 3 (reads of this peptide / all reads for the bait, averaged over ….

Regarding chain 1 E5Y, the screen value is 0.000681 average fractional NGS count over selection days 2 and 3 (reads of this peptide / all reads for the bait, averaged over …. As to chain 1 E5V, the screen value is 0.000931 average fractional NGS count over selection days 2 and 3 (reads of this peptide / all reads for the bait, averaged over …. Take chain 1 E5D: the screen value is 0.00488 average fractional NGS count over selection days 2 and 3 (reads of this peptide / all reads for the bait, averaged over …. In the case of chain 1 E5T it was 0.000518 average fractional NGS count over selection days 2 and 3 (reads of this peptide / all reads for the bait, averaged over ….

Take chain 1 E5A: the screen value was 0.000481 average fractional NGS count over selection days 2 and 3 (reads of this peptide / all reads for the bait, averaged over …. In the case of chain 1 F15H it was 0.000286 average fractional NGS count over selection days 2 and 3 (reads of this peptide / all reads for the bait, averaged over …; in that of chain 1 F15Q, 0.0113 average fractional NGS count over selection days 2 and 3 (reads of this peptide / all reads for the bait, averaged over …; in that of chain 1 F15Y, 0.00151 average fractional NGS count over selection days 2 and 3 (reads of this peptide / all reads for the bait, averaged over …. In the case of chain 1 F15L it was 0.0296 average fractional NGS count over selection days 2 and 3 (reads of this peptide / all reads for the bait, averaged over …; in that of chain 1 F15R, 0.00042 average fractional NGS count over selection days 2 and 3 (reads of this peptide / all reads for the bait, averaged over …; in that of chain 1 F15S, 0.0126 average fractional NGS count over selection days 2 and 3 (reads of this peptide / all reads for the bait, averaged over …. In the case of chain 1 F15W it was 0.00256 average fractional NGS count over selection days 2 and 3 (reads of this peptide / all reads for the bait, averaged over …; in that of chain 1 F15M, 0.0114 average fractional NGS count over selection days 2 and 3 (reads of this peptide / all reads for the bait, averaged over …; in that of chain 1 F15D, 0.00754 average fractional NGS count over selection days 2 and 3 (reads of this peptide / all reads for the bait, averaged over …. Take chain 1 F15P: the screen value was 0.00458 average fractional NGS count over selection days 2 and 3 (reads of this peptide / all reads for the bait, averaged over …. For chain 1 H9K, the screen value was 0.0135 average fractional NGS count over selection days 2 and 3 (reads of this peptide / all reads for the bait, averaged over …. In the case of chain 1 H9A it was 0.00146 average fractional NGS count over selection days 2 and 3 (reads of this peptide / all reads for the bait, averaged over …. Then chain 1 H9I, with 0.00113 average fractional NGS count over selection days 2 and 3 (reads of this peptide / all reads for the bait, averaged over …; and chain 1 H9E, with 0.00208 average fractional NGS count over selection days 2 and 3 (reads of this peptide / all reads for the bait, averaged over …; and chain 1 H9N, with 0.00523 average fractional NGS count over selection days 2 and 3 (reads of this peptide / all reads for the bait, averaged over …. Then chain 1 H9T, with 0.00161 average fractional NGS count over selection days 2 and 3 (reads of this peptide / all reads for the bait, averaged over …; and chain 1 H9S, with 0.00629 average fractional NGS count over selection days 2 and 3 (reads of this peptide / all reads for the bait, averaged over …; and chain 1 H9G, with 0.00212 average fractional NGS count over selection days 2 and 3 (reads of this peptide / all reads for the bait, averaged over …. Consider chain 1 H9V, for which the screen value was 0.00147 average fractional NGS count over selection days 2 and 3 (reads of this peptide / all reads for the bait, averaged over …. In the case of chain 1 H9R it was 0.00234 average fractional NGS count over selection days 2 and 3 (reads of this peptide / all reads for the bait, averaged over …; in that of chain 1 M14E, 0.000177 average fractional NGS count over selection days 2 and 3 (reads of this peptide / all reads for the bait, averaged over …. In the case of chain 1 M14N it was 0.00152 average fractional NGS count over selection days 2 and 3 (reads of this peptide / all reads for the bait, averaged over …; in that of chain 1 M14W, 0.00207 average fractional NGS count over selection days 2 and 3 (reads of this peptide / all reads for the bait, averaged over …; in that of chain 1 M14P, 0.00244 average fractional NGS count over selection days 2 and 3 (reads of this peptide / all reads for the bait, averaged over …. In the case of chain 1 M14D it was 0.00118 average fractional NGS count over selection days 2 and 3 (reads of this peptide / all reads for the bait, averaged over …; in that of chain 1 M14Y, 0.00313 average fractional NGS count over selection days 2 and 3 (reads of this peptide / all reads for the bait, averaged over …. Take chain 1 M14H: the screen value was 0.0015 average fractional NGS count over selection days 2 and 3 (reads of this peptide / all reads for the bait, averaged over ….

Consider chain 1 M14S, for which the screen value is 0.00183 average fractional NGS count over selection days 2 and 3 (reads of this peptide / all reads for the bait, averaged over ….

Regarding chain 1 M14F, the screen value was 0.000469 average fractional NGS count over selection days 2 and 3 (reads of this peptide / all reads for the bait, averaged over …. Then chain 1 M14Q, with 0.000925 average fractional NGS count over selection days 2 and 3 (reads of this peptide / all reads for the bait, averaged over …; and chain 1 G8W, with 0.000927 average fractional NGS count over selection days 2 and 3 (reads of this peptide / all reads for the bait, averaged over …. Then chain 1 G8Y, with 0.00157 average fractional NGS count over selection days 2 and 3 (reads of this peptide / all reads for the bait, averaged over …; and chain 1 G8A, with 0.000308 average fractional NGS count over selection days 2 and 3 (reads of this peptide / all reads for the bait, averaged over …. Then chain 1 G8H, with 0.00286 average fractional NGS count over selection days 2 and 3 (reads of this peptide / all reads for the bait, averaged over …; and chain 1 G8Q, with 0.0015 average fractional NGS count over selection days 2 and 3 (reads of this peptide / all reads for the bait, averaged over …; and chain 1 G8N, with 0.00558 average fractional NGS count over selection days 2 and 3 (reads of this peptide / all reads for the bait, averaged over …. For the variant chain 1 G8R, the screen value is 0.000199 average fractional NGS count over selection days 2 and 3 (reads of this peptide / all reads for the bait, averaged over …. Then chain 1 G8T, with 0.00199 average fractional NGS count over selection days 2 and 3 (reads of this peptide / all reads for the bait, averaged over …; and chain 1 G8M, with 0.00018 average fractional NGS count over selection days 2 and 3 (reads of this peptide / all reads for the bait, averaged over …. In the case of chain 1 H12V it was 0.000717 average fractional NGS count over selection days 2 and 3 (reads of this peptide / all reads for the bait, averaged over …; in that of chain 1 H12L, 0.000337 average fractional NGS count over selection days 2 and 3 (reads of this peptide / all reads for the bait, averaged over …. Then chain 1 H12M, with 0.00543 average fractional NGS count over selection days 2 and 3 (reads of this peptide / all reads for the bait, averaged over …; and chain 1 H12S, with 0.00289 average fractional NGS count over selection days 2 and 3 (reads of this peptide / all reads for the bait, averaged over …; and chain 1 H12G, with 0.0011 average fractional NGS count over selection days 2 and 3 (reads of this peptide / all reads for the bait, averaged over …. In the case of chain 1 H12D, the screen value is 0.00032 average fractional NGS count over selection days 2 and 3 (reads of this peptide / all reads for the bait, averaged over …. Then chain 1 H12T, with 0.00036 average fractional NGS count over selection days 2 and 3 (reads of this peptide / all reads for the bait, averaged over …; and chain 1 H12N, with 0.00222 average fractional NGS count over selection days 2 and 3 (reads of this peptide / all reads for the bait, averaged over ….
